{"source": "paper PMC9961625", "about": "“Anti-Trypanosoma cruzi Properties of Sesquiterpene Lactones Isolated from Stevia spp.: In Vitro and In Silico Studies” (Pharmaceutics, 2023)", "system": "Cc1cc(=O)oc2cc(NC(=O)[C@@H]3CCCN3C(=O)CNC(=O)OCc3ccccc3)ccc12", "experiment": "purified protein"}
{"substance": "prolyl oligopeptidase of 80 kDa (Tc80) (Trypanosoma cruzi)", "values": [{"measurement": "Km", "result": 5.9, "unit": "µM"}]}
